{"source": "paper PMC12120875", "biological_target": "VqERF1B-mCherry (Vitis quinquangularis accession 'Danfeng-2')", "test": "FRET or BRET"}
{"substance": "VqERF062-GFP (natural protein)", "values": [{"measurement": "FRET efficiency", "value": 32, "unit": "%"}]}
